Target: Hck (UniProt P08631)
Experiment: phosphorylation enrichment, bacterial display (enrichment ratio); higher = better substrate or ligand; peptides without Tyr show the background
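Note: 11-residue human phosphosite peptides and single-mutation variants displayed on the E. coli surface, counted by deep sequencing, each peptide's frequency after selection divided by its frequency in the unselected input library; frequency after pTyr selection over input frequency; kinase dosed for 20-30% of maximal phosphorylation in three min.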

Chain of Hck (P08631 whole entry, looked up): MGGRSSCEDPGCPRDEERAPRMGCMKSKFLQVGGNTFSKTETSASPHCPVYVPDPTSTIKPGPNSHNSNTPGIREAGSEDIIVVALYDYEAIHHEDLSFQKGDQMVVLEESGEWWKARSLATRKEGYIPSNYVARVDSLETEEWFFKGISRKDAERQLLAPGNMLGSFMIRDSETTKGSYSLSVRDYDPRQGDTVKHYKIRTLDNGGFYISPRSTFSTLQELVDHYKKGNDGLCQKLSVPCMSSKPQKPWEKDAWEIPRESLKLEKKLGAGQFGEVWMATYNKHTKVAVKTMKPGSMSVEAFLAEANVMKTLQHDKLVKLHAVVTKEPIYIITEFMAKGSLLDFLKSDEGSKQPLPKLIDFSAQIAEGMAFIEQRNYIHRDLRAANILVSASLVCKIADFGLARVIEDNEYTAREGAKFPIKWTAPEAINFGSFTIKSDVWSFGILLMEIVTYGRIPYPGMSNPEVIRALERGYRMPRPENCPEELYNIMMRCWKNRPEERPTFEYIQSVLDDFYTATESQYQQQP

| Sequence | phosphorylation enrichment |
| --- | --- |
| SLIDGYYRLTE [JAK2_Y372_A377E] | 0.583 |
| FNVLQYVVPKV [EIF3A_Y382_E386K] | 0.386 |
| PANMVYSTVEI [SLAMF7_Y304_T302M] | 9.3 |
| GMTLSYLFREL [NDUFS8_Y74_P79L] | 0.487 |
| FGDTPYIPFRD [CDC14C_Y132] | 0.54 |
| YRGYSYDDIPD [TMEM230_Y112] | 0.51 |
| GYGGGYGGVLT [KRT19_Y65_A60G] | 0.665 |
| HTVEDYQAIVD [CCT7_Y263] | 0.794 |
| HSHTRYERNIE [F2_Y434_R431H] | 0.477 |
| ERIEFYELDKK [PMM2_Y145] | 0.588 |
| RELSWYRGRRP [HESX1_Y106] | 0.809 |
| ALKKPYSVLFK [RPF2_Y59_G60S_YF] | 0.435 |
| QMVGMYASFYM [AVPR2_Y124_S127F] | 5.46 |
| DVFVSYDCGKS [SORL1_Y139_Y141C_YF] | 0.592 |
| DEYLEYRRIVG [FAM221A_Y20] | 1.06 |
| RHLQEYQDLLN [GFAP_Y349] | 0.468 |
| LEGEEYRMSGE [KRT3_Y511] | 0.531 |

| Sequence | phosphorylation enrichment |
| --- | --- |
| PSNTEYPGPHS [TP63_Y171_D170E] | 0.477 |
| IVVVPYEPPEV [TP53_Y220_S215I] | 0.48 |
| TFRPPYFHRNC [HGD_Y333_YF] | 0.661 |
| SLGKGYSVGGC [MC4R_Y35_D37V] | 0.434 |
| EPNSRYTFKLE [USH2A_Y3745_YF] | 0.393 |
| QELRRYLKSSV [MICA_Y194_G198S] | 0.653 |
| HLGNQYVNVMN [SLC3A1_Y461_R456H] | 0.85 |
| LSKDLYLISQM [LARP4_Y141] | 0.836 |
| ISHVAYRVLGK [TRRAP_Y892] | 0.348 |
| ISMAGYSIPEL [EDAR_Y406_T403M] | 0.437 |
| RPASVYTKRCS [CPT2_Y508] | 0.418 |
| EFENSCIFDIN [GAB1_Y83_Y83C] | 0.406 |
| HFGNNYTDVLQ [MACC1_Y803_R804T_YF] | 0.426 |
| PADQAYSWFQH [NDST1_Y711_R709Q_YF] | 1.36 |
| LFSINYLHFGD [KDM4C_Y201_E206D_YF] | 0.71 |
| KIITDYFVDMK [MPP4_Y566_V562I_YF] | 0.479 |

Target: Jak2 (UniProt O60674)
Experiment: as above

Chain of Jak2 (O60674 whole entry, looked up): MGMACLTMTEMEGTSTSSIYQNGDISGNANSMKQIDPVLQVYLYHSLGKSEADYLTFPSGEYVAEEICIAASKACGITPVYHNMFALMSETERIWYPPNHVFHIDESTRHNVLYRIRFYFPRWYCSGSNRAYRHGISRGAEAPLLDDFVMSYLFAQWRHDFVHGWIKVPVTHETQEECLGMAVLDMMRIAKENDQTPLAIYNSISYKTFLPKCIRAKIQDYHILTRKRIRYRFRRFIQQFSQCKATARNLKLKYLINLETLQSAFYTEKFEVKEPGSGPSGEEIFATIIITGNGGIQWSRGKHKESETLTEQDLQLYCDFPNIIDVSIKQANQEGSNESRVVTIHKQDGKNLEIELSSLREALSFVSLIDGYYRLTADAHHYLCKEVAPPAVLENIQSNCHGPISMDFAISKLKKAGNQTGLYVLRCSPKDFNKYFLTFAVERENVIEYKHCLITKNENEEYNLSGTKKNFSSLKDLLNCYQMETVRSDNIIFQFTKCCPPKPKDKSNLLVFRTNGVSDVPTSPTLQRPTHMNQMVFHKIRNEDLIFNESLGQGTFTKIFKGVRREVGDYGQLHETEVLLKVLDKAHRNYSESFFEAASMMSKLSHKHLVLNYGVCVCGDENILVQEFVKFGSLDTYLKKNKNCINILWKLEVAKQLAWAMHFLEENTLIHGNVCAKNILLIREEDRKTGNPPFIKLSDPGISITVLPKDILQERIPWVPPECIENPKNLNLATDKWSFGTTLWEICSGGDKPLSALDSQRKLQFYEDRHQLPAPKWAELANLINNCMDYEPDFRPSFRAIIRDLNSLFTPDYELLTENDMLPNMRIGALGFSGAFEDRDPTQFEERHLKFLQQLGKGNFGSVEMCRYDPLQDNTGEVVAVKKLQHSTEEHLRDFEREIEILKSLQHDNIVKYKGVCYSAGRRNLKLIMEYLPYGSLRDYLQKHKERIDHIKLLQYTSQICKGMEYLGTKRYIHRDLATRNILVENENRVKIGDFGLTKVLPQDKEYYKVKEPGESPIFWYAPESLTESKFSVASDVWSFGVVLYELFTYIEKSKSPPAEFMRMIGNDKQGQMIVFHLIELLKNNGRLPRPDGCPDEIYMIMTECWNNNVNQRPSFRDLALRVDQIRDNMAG

| Sequence | phosphorylation enrichment |
| --- | --- |
| SLIDGYYRLTE [JAK2_Y372_A377E] | 5.79 |
| FNVLQYVVPKV [EIF3A_Y382_E386K] | 2.2 |
| PANMVYSTVEI [SLAMF7_Y304_T302M] | 0.659 |
| GMTLSYLFREL [NDUFS8_Y74_P79L] | 0.758 |
| FGDTPYIPFRD [CDC14C_Y132] | 0.646 |
| YRGYSYDDIPD [TMEM230_Y112] | 0.973 |
| GYGGGYGGVLT [KRT19_Y65_A60G] | 0.575 |
| HTVEDYQAIVD [CCT7_Y263] | 1.67 |
| HSHTRYERNIE [F2_Y434_R431H] | 0.47 |
| ERIEFYELDKK [PMM2_Y145] | 0.892 |
| RELSWYRGRRP [HESX1_Y106] | 0.895 |
| ALKKPYSVLFK [RPF2_Y59_G60S_YF] | 0.729 |
| QMVGMYASFYM [AVPR2_Y124_S127F] | 1.79 |
| DVFVSYDCGKS [SORL1_Y139_Y141C_YF] | 1.05 |
| DEYLEYRRIVG [FAM221A_Y20] | 0.91 |
| RHLQEYQDLLN [GFAP_Y349] | 0.565 |
| LEGEEYRMSGE [KRT3_Y511] | 1.58 |

| Sequence | phosphorylation enrichment |
| --- | --- |
| PSNTEYPGPHS [TP63_Y171_D170E] | 0.568 |
| IVVVPYEPPEV [TP53_Y220_S215I] | 0.882 |
| TFRPPYFHRNC [HGD_Y333_YF] | 0.717 |
| SLGKGYSVGGC [MC4R_Y35_D37V] | 0.846 |
| EPNSRYTFKLE [USH2A_Y3745_YF] | 0.76 |
| QELRRYLKSSV [MICA_Y194_G198S] | 0.457 |
| HLGNQYVNVMN [SLC3A1_Y461_R456H] | 0.618 |
| LSKDLYLISQM [LARP4_Y141] | 1.28 |
| ISHVAYRVLGK [TRRAP_Y892] | 0.426 |
| ISMAGYSIPEL [EDAR_Y406_T403M] | 0.68 |
| RPASVYTKRCS [CPT2_Y508] | 0.444 |
| EFENSCIFDIN [GAB1_Y83_Y83C] | 0.824 |
| HFGNNYTDVLQ [MACC1_Y803_R804T_YF] | 0.578 |
| PADQAYSWFQH [NDST1_Y711_R709Q_YF] | 0.855 |
| LFSINYLHFGD [KDM4C_Y201_E206D_YF] | 1.56 |
| KIITDYFVDMK [MPP4_Y566_V562I_YF] | 1.14 |

Target: MERTK (UniProt Q12866)
Experiment: as above

Chain of MERTK (Q12866 whole entry, looked up): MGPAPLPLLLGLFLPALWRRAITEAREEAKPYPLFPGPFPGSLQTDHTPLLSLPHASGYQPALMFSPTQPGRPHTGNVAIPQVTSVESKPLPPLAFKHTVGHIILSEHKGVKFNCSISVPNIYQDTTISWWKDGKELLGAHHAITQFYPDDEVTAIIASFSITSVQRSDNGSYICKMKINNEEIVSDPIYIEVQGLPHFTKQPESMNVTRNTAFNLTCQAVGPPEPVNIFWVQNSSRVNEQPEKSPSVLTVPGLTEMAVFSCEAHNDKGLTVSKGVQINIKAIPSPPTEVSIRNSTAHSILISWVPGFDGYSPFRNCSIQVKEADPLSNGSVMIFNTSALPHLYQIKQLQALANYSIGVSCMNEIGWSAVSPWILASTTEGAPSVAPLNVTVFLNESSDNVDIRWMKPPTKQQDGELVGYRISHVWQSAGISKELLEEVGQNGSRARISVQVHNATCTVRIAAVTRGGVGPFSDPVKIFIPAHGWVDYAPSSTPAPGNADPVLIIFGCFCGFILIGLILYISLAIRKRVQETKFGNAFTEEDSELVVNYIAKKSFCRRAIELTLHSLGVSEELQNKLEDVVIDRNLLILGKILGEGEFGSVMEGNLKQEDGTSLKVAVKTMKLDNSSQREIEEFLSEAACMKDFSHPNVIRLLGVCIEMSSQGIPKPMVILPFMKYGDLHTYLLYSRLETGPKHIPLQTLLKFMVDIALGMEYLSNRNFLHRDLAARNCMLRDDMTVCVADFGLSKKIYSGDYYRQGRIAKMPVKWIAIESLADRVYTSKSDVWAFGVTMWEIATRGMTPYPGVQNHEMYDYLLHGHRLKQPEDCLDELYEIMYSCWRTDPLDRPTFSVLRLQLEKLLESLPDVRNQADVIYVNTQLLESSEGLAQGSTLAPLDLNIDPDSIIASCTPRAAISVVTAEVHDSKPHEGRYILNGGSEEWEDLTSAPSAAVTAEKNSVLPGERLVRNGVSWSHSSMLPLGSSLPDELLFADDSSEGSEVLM

| Sequence | phosphorylation enrichment |
| --- | --- |
| SLIDGYYRLTE [JAK2_Y372_A377E] | 0.441 |
| FNVLQYVVPKV [EIF3A_Y382_E386K] | 1.41 |
| PANMVYSTVEI [SLAMF7_Y304_T302M] | 8.74 |
| GMTLSYLFREL [NDUFS8_Y74_P79L] | 0.447 |
| FGDTPYIPFRD [CDC14C_Y132] | 0.445 |
| YRGYSYDDIPD [TMEM230_Y112] | 0.393 |
| GYGGGYGGVLT [KRT19_Y65_A60G] | 0.391 |
| HTVEDYQAIVD [CCT7_Y263] | 0.734 |
| HSHTRYERNIE [F2_Y434_R431H] | 0.5 |
| ERIEFYELDKK [PMM2_Y145] | 0.393 |
| RELSWYRGRRP [HESX1_Y106] | 0.833 |
| ALKKPYSVLFK [RPF2_Y59_G60S_YF] | 0.448 |
| QMVGMYASFYM [AVPR2_Y124_S127F] | 4.41 |
| DVFVSYDCGKS [SORL1_Y139_Y141C_YF] | 0.371 |
| DEYLEYRRIVG [FAM221A_Y20] | 0.38 |
| RHLQEYQDLLN [GFAP_Y349] | 0.392 |
| LEGEEYRMSGE [KRT3_Y511] | 0.462 |

| Sequence | phosphorylation enrichment |
| --- | --- |
| PSNTEYPGPHS [TP63_Y171_D170E] | 0.383 |
| IVVVPYEPPEV [TP53_Y220_S215I] | 0.448 |
| TFRPPYFHRNC [HGD_Y333_YF] | 1.03 |
| SLGKGYSVGGC [MC4R_Y35_D37V] | 0.354 |
| EPNSRYTFKLE [USH2A_Y3745_YF] | 0.373 |
| QELRRYLKSSV [MICA_Y194_G198S] | 0.213 |
| HLGNQYVNVMN [SLC3A1_Y461_R456H] | 0.29 |
| LSKDLYLISQM [LARP4_Y141] | 0.703 |
| ISHVAYRVLGK [TRRAP_Y892] | 0.34 |
| ISMAGYSIPEL [EDAR_Y406_T403M] | 0.573 |
| RPASVYTKRCS [CPT2_Y508] | 0.442 |
| EFENSCIFDIN [GAB1_Y83_Y83C] | 0.895 |
| HFGNNYTDVLQ [MACC1_Y803_R804T_YF] | 0.638 |
| PADQAYSWFQH [NDST1_Y711_R709Q_YF] | 7.11 |
| LFSINYLHFGD [KDM4C_Y201_E206D_YF] | 0.783 |
| KIITDYFVDMK [MPP4_Y566_V562I_YF] | 0.37 |

System: c-Abl (mouse)
Experiment: as above

| Sequence | phosphorylation enrichment |
| --- | --- |
| SLIDGYYRLTE [JAK2_Y372_A377E] | 0.533 |
| FNVLQYVVPKV [EIF3A_Y382_E386K] | 9.24 |
| PANMVYSTVEI [SLAMF7_Y304_T302M] | 6.82 |
| GMTLSYLFREL [NDUFS8_Y74_P79L] | 0.603 |
| FGDTPYIPFRD [CDC14C_Y132] | 0.589 |
| YRGYSYDDIPD [TMEM230_Y112] | 0.762 |
| GYGGGYGGVLT [KRT19_Y65_A60G] | 0.468 |
| HTVEDYQAIVD [CCT7_Y263] | 1.68 |
| HSHTRYERNIE [F2_Y434_R431H] | 0.694 |
| ERIEFYELDKK [PMM2_Y145] | 0.771 |
| RELSWYRGRRP [HESX1_Y106] | 0.787 |
| ALKKPYSVLFK [RPF2_Y59_G60S_YF] | 0.581 |
| QMVGMYASFYM [AVPR2_Y124_S127F] | 3.61 |
| DVFVSYDCGKS [SORL1_Y139_Y141C_YF] | 0.74 |
| DEYLEYRRIVG [FAM221A_Y20] | 0.859 |
| RHLQEYQDLLN [GFAP_Y349] | 0.417 |
| LEGEEYRMSGE [KRT3_Y511] | 0.956 |

| Sequence | phosphorylation enrichment |
| --- | --- |
| PSNTEYPGPHS [TP63_Y171_D170E] | 0.696 |
| IVVVPYEPPEV [TP53_Y220_S215I] | 0.733 |
| TFRPPYFHRNC [HGD_Y333_YF] | 0.635 |
| SLGKGYSVGGC [MC4R_Y35_D37V] | 0.593 |
| EPNSRYTFKLE [USH2A_Y3745_YF] | 0.658 |
| QELRRYLKSSV [MICA_Y194_G198S] | 0.349 |
| HLGNQYVNVMN [SLC3A1_Y461_R456H] | 0.764 |
| LSKDLYLISQM [LARP4_Y141] | 1.06 |
| ISHVAYRVLGK [TRRAP_Y892] | 0.477 |
| ISMAGYSIPEL [EDAR_Y406_T403M] | 1.15 |
| RPASVYTKRCS [CPT2_Y508] | 0.687 |
| EFENSCIFDIN [GAB1_Y83_Y83C] | 0.673 |
| HFGNNYTDVLQ [MACC1_Y803_R804T_YF] | 0.761 |
| PADQAYSWFQH [NDST1_Y711_R709Q_YF] | 0.58 |
| LFSINYLHFGD [KDM4C_Y201_E206D_YF] | 0.968 |
| KIITDYFVDMK [MPP4_Y566_V562I_YF] | 0.644 |
